Measurements as given in a protein production outcome set (Wang et al. 2014).

assay: label from the status in PepcDB records
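Also: failed if final PepcDB status was selected cloned or expressed and not failed if soluble or beyond.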

| Sequence | protein production |
| --- | --- |
| MNEQQRLASQQVNSSTKKEEKDYSKYFESVYQPPSLKEAKKRGKEEVKIERDFGLPEEFRNFGTGRKFYIRTYGCQMNEHDTEVMAGIFTALGYEPTFSTEDADVVLLNTCAIRENAENKVFGELGHLKALKRRNPDLLIGVCGCMSQEESVVNKIMQKNQHVDMVFGTHNIHRLPYILKDAMFSKETVVEVWSKEGDVIENLPKVRRGDIKAWVNIMYGCDKFCTYCIVPYTRGKERSRRPEDIIQEIRHLAANGYKEITLLGQNVNAYGKDFEDIEYGLGDLMDELRKVDIARIRFTTSHPRDFDDHLIEVLGKGGNLVEHIHLPVQSGSTEMLKIMARKYSREHYLELVRKIKEAIPNAVLTTDIIVGFPNETDEQFEETMSLYREVGFDTAFTFIYSPREGTPAAKMKDNVPMEVKKERLQRLNALVNKLAIEKNDRYKGQIVEVLVDGESKNNPEVLAGYTRTNKLVNFVAPKSLIGQLVKVKVTDAKTWSLNGELVEEPIEVELEHHHHHH | failed |
| MNESGFLIDTHAHIDGHDFAADFDAMLSRAWEAGLSHIVTVGADLESSRAAVALAGRHERIWCAVGIHPHDAGRVTDRCYDEIRTLAQGNPKVAAIGEIGLDFFRDRSPRDEQEQVFRRFIRLARELALPIVVHDRDAHERVMAILREEKARDVGGVLHCFSGDLAMARECVDMGFLISIPGTVTYPSNEALREVVRGVKIEHLLVETDCPYLTPVPHRGKRNEPAYVRLTAEKVAELKGLSLEDVGRITSLNARRLFGIGESDQAARIAYRIRNSLYLNITNRCSNRCSFCAKFDDYTVKGHHLRLDHEPDSAEVLAAVGEPGPVDEIVFCGFGEPMLRLDLIVEVARELKKRGFRIRINTDGQANLVHGRNVLPELQGLVDCISVSLNAADADTYARLCNTPFGTNGFNGICRFLEEARLYIPTVVATAVTVPGIDVAAVRALAESLGVEFREREFAEVGLEHHHHHH | not failed |
| MNFKKLSNAKVSVMAVVLSVGILSGYSALNKQVTLVVRGEERTISTFSSNVGDLLESQNISYDANDIVTLDENTKLSNGDKIEVIDVKEKTVVETKDIPFEVTVVEDGSLLKGDSKVKEEGKSGKSELIYKETYHNGKKVEKEFVKKVVKAEPVNKVVSKGTKVEMQVASSRGESSRRMASSSSSSSSSNNGKNMRVVATAYTGHSITATGTKPKWGTIAVDPKVIPYGTKVYIPQFDMVFTAEDCGGAIKGNKIDIYMNDSKTVYNWGRKTIDIRILK | failed |
| MNFLVIGSSLAFLLYILATLAIVTRLFHPKGPNITLVLSLATAAIIVHGFNDGLLFFSQDTINFNLPNVISLVSLIITIAVTLVSLRFKVNLLLPVIYGFTGLWQLVILFIPPIDSIPLVVEKVILLSHISFALIAYCVLIIATLYAFQVTYINLKLKSKNLTAVAHLPPLMQVEKQLFSILTVGTAILFISQIIGFVFLDGFLAKENAHKTILSLLSFAIYGLILWGHFEKGWRGHKVLVLMVSASALLTLAYFGSRFVKEFIL | failed |
| MNFPLVLLILLVVTGGIWLLDYFVLRHKRVSGNTEEPWWVEYPKSFFPIILIVFSLRSFLVEPFKIPSGSMIPTLLIGDFILVNKYTYGIRLPVANLKIIDMNEPQRGEVMVFRFPEDPSIDYIKRVIGVPGDMVTYRNKQLSINDVPVQLEQGGDYKYIDGPAYIYTQRFKENMDGSEHDILINEDMPDIQLSAIHHFPNRENCTFDRTGFSCKVPEGNYFTLGDNRDGSSDSRYWGFVPENHIVGKAFLIWWNFNDLSRIGTLIK | failed |
| MNFRTGQPSDAAALAAISIEVWLGTYMRKGVSAFFAEYALNEFTSTKMASLLKDPNEHVIVSENEGGIDAFIRLGQGRAAPVSGCSTLEIATLYVQPRHHRRGLGRALLEQGLAYARQASAPSVWLTTNSENAPAIAFYLEQGFEKVGTTHFNIGDQ | not failed |
| MNFSLVHLRENVRRVSVTVAIGAGALLISGPFFTAHTAEATETYVLAESPEFYQDNVTDYTGQISSSDITNIQAAIDDVKASEQKVIFVVFLSSFDGVDPETWTQQALQANGGGNVLIYALAPEERQYGIQGGTQWTDAELDAANNAAFQALSQEDWAGSALALAESVGSSSSSSSGSSSSSDFSGAWLAAAGVGTVAAGGGIWAYSRSRKKKTSAATLEDAREIDPRDTNRLMQLPMETLEHLAQEELTSTDDSIRRGKEELAIATSEFGPERTRSFNRAMNHSTGTLQKAFEIQQRLNDSIPESEAERQSMLVEIISSCGQADDALDAEAQNFADMRNLLINAGSKLDALTQKSVDLRTRLPKAQETLAGLRTRYSAEVLESIDDNVDLASASLDEAEEVLPQAYEIESMPAGEQGGLIDAIRHIEHAITTADKLLAGVEHADENISTAKANVADLIQEISDEINEAGQLKQSAGADGARADWASLDDAVRAASAALITASADAEKDPLGTYTELVDVDSALDTQLDTLRATAADQARQLRVFDQQLQSARSQIQKAEDLISTRGRIVKSEARTHLANAQKLYAMAQQNRTRDTRAGIDYGRQAAVAAQRASKSAQNDITTYNNRHNSGGGTTGAIVTGMVINSILNSGRGGGFGGGGGFGGGGGGFSGGGGGGGGFRGGRF | failed |
| MNFVTFQFVVFLVITVIVFMMMSPYYRKYFILLCSYFFYGTWSVPLISVILFSTSVDYYLGKKIHESHSQTHKKLYLTLSILVNCSILVYFKYMNFFISSIDAIGFSLGATQLLLNPMHIILPLGVSFYTFEAISYIVDIYRGEKPASSWLNYNFYIMYFPHLISGPIVRYKELHAQYESKIELPETSRLKEGFQLLLYGFIFKLVIADSMASISDPLFDKYQTIGHLESWLASIAFTIQIYFDFLGYTHIARGVSLFFNIKLPVNFNHPYNARNISEFWQRWHITLSLWIRDYLYIPLGGNRGRLYQTVNNLLITMFIAGLWHGASWNYAIWGTYHGCLLAVYHVFRFYYIKRNLQTENQLMKIGSIIMTYSLVVIGWVIFRSTSFEQAFTILGKMYDIPGFVQEFAMNQRASAYTDSLFYLVGMFALCFIGPTFKSIETKILSAVQPFWIKKWLYSLSIFTVLIFMFSPVKPFIYFVF | failed |
| MNFYWFDAFILGFTLLLGLKGIINGLIKEIFGLLGIIGGVFIASKYATQAAEFIQSTFYKIENQSLAGFAGFLAILIIFWIVCLLVGNFLSRLIKLSGLGFLDRIGGFIFGGAKIFLIFAILVFCVARIDFLNDKLDNFAKNSYTLNLLKETGSFIMNQPLTENSLDHASEKLQDIVSDLNNTQKGE | failed |
| MNGFSQLEGLRGHPSVVRVIGHRGARGVMPENTLEGFAFTLAAGVRALEFDVVMTADGVPVVTHNHHLANAMTRDGQGHWLTGAERQVAEMTYAEIRALDVGGLDGRTVYGRRFPDQAFLTGIHVPRLGELLDLCAGYGDQAPYLLLELKSDPALMHDHAARAEMVAAVLADVRRYRMEPRTVMHSFDWALLGECRRQAPDLPTSYLSQLPENADDPGEDSAKPVGPDYDRMTESLPQAVASAGGQLWCPYFLDVTPELVAEAHDLGLIVLTWTVNEPEDIRRMATTGVDGIVTDYPGRTQRILIDMGLSWT | not failed |
| MNGHAFFFAGVRLTALPSGALWWPAERLLCVSDLHLGKAERLARRGGTLLPPYETQATLARLEADLEATGAERVLCLGDSFDDGAAADGLAEPERLWLRRLMTGRDWIWILGNHD | failed |
| MNGQAKTISASAKGIPQPSNNNFVDFTMSYNGTTKVMSITYGGQTWTQNVSSFIGTNQAMSFSIAASTGAQMNLQQLRNVNFTYTVAQGTVIANYVDEQGNTIAQQETTSGDIDTPYVTSQKTIPGYTFKASNGAATSGNYAANDQTVNYVYTRNQGSIDVTYIDQTTGQTLSKKDLSGGTGDSSNYTTTDTIKSYTDAGYELVSDNYPSGGTVFTDTAQHYVVNLKQKLVVSSEQKQVNETIQYVYEDGSKAADDYNAPPLNFTRSVTTNQVTGEKTYGDWQAQNGDSFGEVVSPTIKGETADQLKIDAISGITANSADIQKKVVYKRNQGTIDVTYIDETTGQVLTKKDLSGGTDDPSNYTTADDIKSYTDKGYELVSDDYPSGGTVFTDEPQHYVVKLKHGLTESTDKKAVNQVIHYVYEGGGEAATDHNATVDFSRTITTDRVTNDKTYGDWTADNGDSFASVTSPVIDGYTADQLKVSEMTGITADTEDISVTVTYTRNQGTIDITYIDQTTGQTLSKKDLSGGTGDDSGYTTADTIKSYTDKGYELISDDYPEDGTKFADDPQHYIVRLKHGLTEVTENKTVNQVIHYVYEGGGEAATDHNATVVFSQTITTDKVTGEKTYSDWTADNGDSFASVTSPVIDGYTADQLKVSEMTGITVDTEDISVTVTYTRNQGTIDVTYIDETTGKILTTKDLSGGTGDDSGYTTADTIKSYTDKGYELVSNDYPEDGTKFADDPQHYIVRLKHGTVVETENKSVNEVIHYVYDNGDKAADNYKATIVFSRTITTDKVTGEKTYSDWTADNGGRFAAVLSPIIKDYIASQLKVDEMTGITVDTADIERIVVYHKVPAGIIVPPVHPDKPSQPSNNQSKIPTAKAVKDSKPTDVLPSTGDSQKSQIVLTLLGIMAVIISPLALLLRRRKQ | failed |
| MNGVELTLTGAEVLLPGGPARRDLCLSGGQVVDAPAGRQVDLSGYLVLPGIVDLHGDGFERHMAPRRGAMKEMGEGVVAAEAELAANGITTAVLAQFWSWEGGLRGPDFAAGVFQAIRQVQGSLVTDLIPQLRFETHLLEDYAALPDRLAEWQVPYVVFNDHLPHDRLAEGRKPPRLAGQALKAGRSPEAHLALLQALHANGPQVPAALDKLCAELHRRGVRMGSHDDHSAEDCATGQGRGLTISEFPETLEAAEATRASGGHVILGSPNVVRGGSHKGNVSALDLITMGLCDALASDYHYPSPRRAALMLVRTGLLDLAAAWALVSSGPARVLGLDDRGELAPGKRADLVILDAQSHRVAATFAAGRVSYMSGDVATRFLA | failed |
| MNGYIINIRYQQMGRVIYMFFFAIFGIQDKNKHIGNCNNIVCPSCGRLSMYEVYKYYKYFHIFFLPIFKWDVRYIVKTSCCGCLYELDPLVGKEFEKNPSTEIREENLQRIDRYSPFKYCSNCRTEVPVEYSYCPYCGERLLEHHHHHH | failed |
| MNGYRRKNMRLINTTSSHQHLVKNQLKHTDATLVETYSAGNTDVIFTQAPKHYELLISNKHRAIKDNEIETIREFFLKRKINKNIILLDQLKTLHTANLIEISIPIAD | failed |
| MNHAITMGIFWHLIGAASAACFYAPFKKVKHWSWETMWSVGGIVSWLILPWAISATLLPDFWAYYRSFSASTLLPVFLFGAMWGIGNINYGLTMRYLGMSMGIGIAIGITLIVGTLMTPIINGQFAVLMHTQGGQMTLLGVLVAVIGVGIVTRAGQLKERKMGIKAEEFNLKKGLLLAVMCGIFSAGMSFAMNAAKPMHDAAAALGVDPLYAALPSYVVIMGGGALVNLGFCFIRLAKVKNLSVKADFSLAKPLIISNLLLSALGGLMWYLQFFFYAWGHASIPAQYDYMSWMLHMSFYVLCGGVVGLVLKEWNNAGRRPVSVLSLGCVVIIIAANIVGLGMAS | failed |
| MNHPAHHGPTVTPKRRHPDSTGAAPVGIVIATRNRRASLAVTVRNLLALPERPDVLVVDNASTDDTRAMLARDFPQVRVLPLPYNRGALARTHGVRALDTPYVAFSDDDSWWAPGALGAAARHFDDHPRLGLLSARTLVGPGDAADPLNDLLADSPLGTATDLPGTQVLGFLGCAAVARRTAYLDAGGYHPLLFFGGEETLLAYDLAARGWGVTHCPDVIAHHHPHPRPRTGRPAVVRRNALLTAWLRRPLPHALARTRALAADARRDPHARHALRETLTRLPAALRARRPLPPHVERAARLLDGADGPDGPGGAVSLEHHHHHH | not failed |
| MNHPDLAGKVAIVTGAGAGIGLAVARRLADEGCHVLCADIDGDAADAAATKIGCGAAACRVDVSDEQQIIAMVDACVAAFGGVDKLVANAGVVHLASLIDTTVEDFDRVIAINLRGAWLCTKHAAPRMIERGGGAIVNLSSLAGQVAVGGTGAYGMSKAGIIQLSRITAAELRSSGIRSNTLLPAFVDTPMQQTAMAMFDGALGAGGARSMIARLQGRMAAPEEMAGIVVFLLSDDASMITGTTQIADGGTIAALW | not failed |
